Consider one substance from article PMC12374985.

Usually stoichiometry N stands for the number of molecules, sites or subunits per partner or assembly.

The target of the experiment is endogenous PKM2 (human (endogenous in A549, PC9 and HEK293T)) (UniProt P14618). The experiment in a line: cross-linking.

Sequence of endogenous PKM2, P14618 1-531 (natural protein; other documents disagree on this pair) (P14618 whole entry): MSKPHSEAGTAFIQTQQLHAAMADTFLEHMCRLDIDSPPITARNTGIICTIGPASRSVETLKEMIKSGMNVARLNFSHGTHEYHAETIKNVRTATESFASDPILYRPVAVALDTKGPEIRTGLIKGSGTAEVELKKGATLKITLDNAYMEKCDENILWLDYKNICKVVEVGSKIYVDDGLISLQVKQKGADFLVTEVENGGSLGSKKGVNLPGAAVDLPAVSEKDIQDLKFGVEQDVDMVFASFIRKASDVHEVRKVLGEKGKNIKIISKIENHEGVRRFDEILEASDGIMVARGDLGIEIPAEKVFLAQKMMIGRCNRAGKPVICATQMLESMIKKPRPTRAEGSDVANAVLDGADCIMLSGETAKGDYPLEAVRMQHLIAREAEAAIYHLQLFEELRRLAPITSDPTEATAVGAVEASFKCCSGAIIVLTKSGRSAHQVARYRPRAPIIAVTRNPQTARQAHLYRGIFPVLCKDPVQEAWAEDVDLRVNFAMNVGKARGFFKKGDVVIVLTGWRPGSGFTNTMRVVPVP

In turn, “endogenous PKM2, P14618 1-531 (natural protein; other documents disagree on this pair)” displayed a stoichiometry N of 2.
